Measurements reported in publication doi:10.1101/2024.10.22.619416 (bioRxiv, 2024).
Positions count from the first letter of the chain named.

B1: alpaca nanobody 3-2A2-4 (VHH)
VHH: QVQLQESGGGLVQPGESLRLSCAASGSISTLNVMGWYRQAPGKQRELVAQITLDGSPEYADSVKGRFTITKDGAQSTLYLQMNNLKPEDTAVYFCKLENGGFFYYWGQGTQVTVST
B2: humanized antibody hAb1.1 (antibody, V domains shown)
VH: QVQLQESGPGLVKPSETLSLTCSVSGFSLINYAISWIRQPPGKGLEWIGVIWTGGGTNYNSALKSRLTISRDTSKNQVFLKMNSVTAADTAVYYCARKDYYGRYYGMDYWGQGTLVTVSS
VL: QAVVTQEPSLTVSPGGTVTLTCRSSTGAVTTSNYANWLQQKPGQAPRGLIGGTNNRAPGVPPRFSGSILGDKAALTLSGAQSEDEADYYCALWYNNHWVFGGGTKLTVL
B3: humanized antibody hAb1.4 (antibody, V domains shown)
VH: B2 VH with S23T, I37V, P40A, R71V, N76S, F79S, K81R, M82L, N83S
VL: B2 VL with L38F, P62A, D71G, S82P
B4: humanized antibody hAb1.5 (antibody, V domains shown)
VH: B2 VH with S23T, P40A, R71V, N76S, V78F, F79S, M82L, N83S
VL: B2 VL with L38F, K41R, A45P, P62A, D71G, S82P
B5: humanized antibody hAb1.2 (antibody, V domains shown)
VH: B2 VH with S23T, P40A, N76S, M82L
VL: B2 VL with L38F, G59W, P62D, I68L, D71G, S82P
B6: humanized nanobody hNb1.1 (VHH)
VHH: EVQLVESGGGLVQPGGSLRLSCAASGSISTLNVMGWFRQAPGKGREWVAAITLDGSPYYADSVKGRFTISRDNAKNTLYLQMNSLRPEDTAVYYCKLENGGFFYYWGQGTQVTVSS
B7: humanized nanobody hNb1.2 (VHH)
VHH: B6 VHH with G35S, F37V, R45L, A49S, A50S, A74S, P87V, Q111L
B8: humanized nanobody hNb1.4 (VHH)
VHH: B6 VHH with F37Y, G44Q, W47L, A50Q, Y58E, P87A
B9: humanized nanobody hNb1.5 (VHH)
VHH: B6 VHH with F37Y, G44Q, W47L, A50Q, Y58E, A74S, R86K
B10: humanized nanobody hNb1.3 (VHH)
VHH: B6 VHH with G35S, F37V, R45L, A49S, A50S, Y58N, A74S, P87V, Q111L

target: SARS-CoV-2 (2019-nCoV) Spike RBD protein (SARS-CoV-2 (2019-nCoV), ancestral …, UniProt P0DTC2); assay: BLI

First: B1
Second: B2
The Kd of the first is 20-fold higher: 5.47 nM for the first, 0.27 nM for the second. The second binds more tightly here.

Going from B3 to B4, the Kd rises from 1.03 nM to 6.37 nM (6.2-fold). The first binds more tightly here.

Going from B5 to B6, the Kd rises from 0.15 nM to 2.52 nM (17-fold). The first binds more tightly here.

Going from B7 to B8, the Kd falls from 45.7 nM to 5.83 nM (7.8-fold).

Compared with B9, B10 is 7.9-fold higher in Kd: 7.4 nM for the first, 58.2 nM for the second. The first binds more tightly here.
